Target: actin (UniProt P68135)
Assay: ITC; Tmod or Lmod construct in the syringe titrated into LatB-actin in the cell (LatB:actin 1.2:1); 20 mM HEPES pH 7.5, 100 mM NaCl, 0.2 mM ATP, 1 mM DTT; temperature and concentrations listed in the figures

Tmod1_(ABS1), sequence (P28289 whole entry, the tested form may be a part): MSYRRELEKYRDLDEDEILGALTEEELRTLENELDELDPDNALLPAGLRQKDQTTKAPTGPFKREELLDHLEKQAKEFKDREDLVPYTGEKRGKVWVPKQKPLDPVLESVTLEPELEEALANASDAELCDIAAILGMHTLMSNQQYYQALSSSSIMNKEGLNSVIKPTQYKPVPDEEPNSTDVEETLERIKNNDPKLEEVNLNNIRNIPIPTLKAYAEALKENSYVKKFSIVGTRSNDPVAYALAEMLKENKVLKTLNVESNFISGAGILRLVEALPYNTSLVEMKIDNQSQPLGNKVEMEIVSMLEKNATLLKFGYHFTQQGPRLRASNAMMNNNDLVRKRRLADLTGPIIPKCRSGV

- stoichiometry N: 1
Substance: Tmod1_(ABS1) (from UniProt P28289-1 1-359) (domain or fragment)
